Experimental data from paper PMC8047445.

How the values were obtained:
[1] = target: cHSP27 (isolated alpha-crystallin domain of HSP27) (human) (UniProt P04792); assay: 15N CPMG relaxation dispersion NMR; same data as a2; pB fixed at the value expected from the titration Kd (4.9% WT, 7.2% P182L) and delta R2 allowed to be non-zero
[2] = target: cHSP27 (isolated alpha-crystallin domain of HSP27) (human) (UniProt P04792); assay: 15N CPMG relaxation dispersion NMR; earlier two-state fit of the CPMG RD data, as told in the first response to reviewers; koff = kex(1-pB), kon = kex pB/[L]free
[3] = target: cHSP27 (isolated alpha-crystallin domain of HSP27) (human) (UniProt P04792); assay: NMR titration; 2D 1H-15N HSQC titration of 15N-cHSP27 (oxidised, disulfide-linked dimer) with unlabelled peptide, 25 °C, 30 mM sodium phosphate, 2 mM EDTA, pH 7; two-state 2D lineshape fit with TITAN on fast- and slow-exchange residues; apparent
[4] = target: cHSP27 (isolated alpha-crystallin domain of HSP27) (human) (UniProt P04792); assay: NMR titration; earlier TITAN lineshape fit of the HSQC titration, as told in the first response to reviewers
[5] = target: cHSP27 (isolated alpha-crystallin domain of HSP27) (human) (UniProt P04792); assay: 15N CPMG relaxation dispersion NMR; 2H,15N-cHSP27 1.5 mM with 80 µM WT or 200 µM P182L peptide, 25 °C, 11.7 and 14.1 T; naive two-state fit (delta R2 = 0), kon and koff from pB and kex; apparent
[6] = target: cHSP27, isolated alpha-crystallin domain (ACD) of HSP27, oxidized disulfide-linked dimer (human) (UniProt P04792); assay: NMR titration; 2D 1H-15N HSQC of 15N-cHSP27 (oxidized dimer) with unlabeled peptide, 25 C, 30 mM sodium phosphate, 2 mM EDTA, pH 7; global fit of CSPs of fast-exchange resonances to a two-state model (equation 2)
[7] = target: cHSP27, isolated alpha-crystallin domain (ACD) of HSP27, oxidized disulfide-linked dimer (human) (UniProt P04792); assay: NMR 15N CPMG relaxation dispersion; 2H,15N-cHSP27 (oxidized dimer) 1.5 mM with 80 uM WT peptide or 200 uM P182L peptide, 25 C, 500 and 600 MHz; naive two-state fit
[8] = target: cHSP27, isolated alpha-crystallin domain (ACD) of HSP27, oxidized disulfide-linked dimer (human) (UniProt P04792); assay: NMR titration; same HSQC titration, 25 C; 2D lineshape analysis with TITAN, fast- and slow-exchange residues fitted globally

Substance	koff [1]	kon [1]	koff [2]	kon [2]	koff [3]	kon [3]	koff [4]	kon [5]	Kd [6]	Kd [7]	koff [7]	pB (percent of cHSP27 bound, by CPMG RD) [7]	Kd [8]
P182L peptide (C-terminal IxI/V peptide of HSP27 with the CMT mutation P182L)	547 s⁻¹	500000 M⁻¹ s⁻¹	840 s⁻¹	83000 M⁻¹ s⁻¹	771 s⁻¹	600000 M⁻¹ s⁻¹	774 s⁻¹	73000 M⁻¹ s⁻¹					
P182L peptide comprising the mutated IxI/V (ILV) motif of the HSP27 C-terminal region									1030 µM	8370 µM	610 s⁻¹	2%	1280 µM
WT peptide (C-terminal IxI/V peptide of HSP27)	346 s⁻¹	2.8e+06 M⁻¹ s⁻¹	759 s⁻¹	300000 M⁻¹ s⁻¹	207 s⁻¹	1.6e+06 M⁻¹ s⁻¹		290000 M⁻¹ s⁻¹					
WT peptide comprising the IxI/V (IPV) motif of the HSP27 C-terminal region									124 µM	1760 µM	515 s⁻¹	2.4%	132 µM
